In US20060280751A1:

Columns and labels:
[1] = target: envelope glycoprotein gp120 of HIV-1 laboratory strain AD8 (HIV-1 AD8 strain); experiment: cell-based or functional assay
[2] = target: envelope glycoprotein gp120 of HIV-1 laboratory strain MN (HIV-1 MN strain) (UniProt P05877); experiment: cell-based or functional assay
[3] = target: envelope glycoprotein gp120 of HIV-1 laboratory strain IIIB (HIV-1 IIIB strain); experiment: cell-based or functional assay
[4] = target: envelope glycoprotein gp120 of HIV-1 laboratory strain SF2 (HIV-1 SF2 strain); experiment: cell-based or functional assay
[5] = target: envelope glycoprotein gp120 of HIV-1 laboratory strain 89.6 (HIV-1 89.6 strain) (UniProt Q73372); experiment: cell-based or functional assay
[6] = target: V3/β-Gal from patients' HIV-1 clones with IGPARAF in the middle portion of V3 region (HIV-1 from patients); experiment: sandwich ELISA: V3/β-Gal (200 ng/ml) captured by anti-β-Gal antibody, 1 µg/ml KD-247
[7] = target: V3/β-Gal from patients' HIV-1 clones with IGPGRAL in the middle portion of V3 region (HIV-1 from patients); experiment: as above
[8] = target: V3/β-Gal from patients' HIV-1 clones with IGPGRAF in the middle portion of V3 region (HIV-1 from patients); experiment: as above
[9] = target: V3/β-Gal from patients' HIV-1 clones with VGPGRAL in the middle portion of V3 region (HIV-1 from patients); experiment: as above
[10] = target: V3/β-Gal from patients' HIV-1 clones with IGPGRSF in the middle portion of V3 region (HIV-1 from patients); experiment: as above
[11] = target: V3/β-Gal from patients' HIV-1 clones with IGPGRAI in the middle portion of V3 region (HIV-1 from patients); experiment: as above
[12] = target: V3/β-Gal from patients' HIV-1 clones with IGPGRTF in the middle portion of V3 region (HIV-1 from patients); experiment: as above

KD-247, a humanized monoclonal antibody to PND region
Neutralizing activity IC50 (p24 antigen in PBMC culture) [1]: 5 µg/mL | Neutralizing activity IC90 (p24 antigen in PBMC culture) [1]: 10 µg/mL | Neutralizing activity IC50 (p24 antigen in PBMC culture) [2]: 0.1 µg/mL | Neutralizing activity IC90 (p24 antigen in PBMC culture) [2]: 1 µg/mL | Neutralizing activity IC50 (p24 antigen in PBMC culture) [3]: > 50 µg/mL | Neutralizing activity IC90 (p24 antigen in PBMC culture) [3]: > 50 µg/mL | Neutralizing activity IC50 (p24 antigen in PBMC culture) [4]: 1 µg/mL | Neutralizing activity IC90 (p24 antigen in PBMC culture) [4]: 5 µg/mL | Neutralizing activity IC50 (p24 antigen in PBMC culture) [5]: 0.2 µg/mL | Neutralizing activity IC90 (p24 antigen in PBMC culture) [5]: 2.5 µg/mL | relative binding (% of V3/β-Gal from MN strain) [6]: > 100% | relative binding (% of V3/β-Gal from MN strain) [7]: > 100% | relative binding (% of V3/β-Gal from MN strain) [8]: > 100% | relative binding (% of V3/β-Gal from MN strain) [9]: > 100% | relative binding (% of V3/β-Gal from MN strain) [10]: > 100% | relative binding (% of V3/β-Gal from MN strain) [11]: > 100% | relative binding (% of V3/β-Gal from MN strain) [12]: > 100%
